Molecular target: T1, human α-CGRP 1-36-COOH (human)
T1 construct: free C-terminal carboxyl, not amidated; also called 1-36 (not amidated at the C-terminus)
T1 peptide: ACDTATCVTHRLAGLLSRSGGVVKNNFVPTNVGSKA
Test: Biacore competition, 50 nM G1 Fab with 10 µM peptide, read on human α-CGRP chip
Source text: Y axis represents percentage of binding blocked by the presence of the competing peptide compared with the binding in the absence of the competing peptide. […]

percentage of binding blocked by competing peptide: ~40%
B1: antibody G1 Fab fragment (Fab, V domains shown)
VH: EVQLVESGGGLVQPGGSLRLSCAASGFTFSNYWISWVRQAPGKGLEWVAEIRSESDASATHYAEAVKGRFTISRDNAKNSLYLQMNSLRAEDTAVYYCLAYFDYGLAIQNYWGQGTLVTVSS
VL: EIVLTQSPATLSLSPGERATLSCKASKRVTTYVSWYQQKPGQAPRLLIYGASNRYLGIPARFSGSGSGTDFTLTISSLEPEDFAVYYCSQSYNYPYTFGQGTKLEIK

Source: patent US20200148761A1 (Teva, published 2020)
